Patent publication US20180258175A1 (ABLEXIS, published 2018)
Where a chain is given by its changes, count along the chain named.

B1: CCK423A-IgG1κ (fully human) (antibody, V domains shown)
VH: QVQLEQSGAEVKRPGASVKVSCKASGYTFTGYYMHWVRQAPGQGLEWMGWINPNRGDTNYAQKFQGRVTMTRDTSISTAYMELSRLRSDDTAVYYCARDLEGGGPFDYWGQGTLVTVSS
VL: DIVMTQTPLSLPVTPGEPASISCRSSQSLLDSDDGNTYLDWYLQKPGQSPQLLIYTLSYRASGVPDRFSGSGSGTDFTLKISRVEAEDVGVYYCMQRIEFPSTFGQGTRLEIK
notes: also called Human IgG1κ; CCK423A-I IgG1κ
B2: CCK423A-IgG4κ (fully human) (antibody, V domains shown)
VH: B1 VH
VL: B1 VL
notes: also called Human IgG4κ; CCK423A-IgG4K
B3: CCK423A-IgG2κ (fully human) (antibody, V domains shown)
VH: B1 VH
VL: B1 VL
notes: also called Human IgG2κ
B4: CCL-332A (antibody, V domains shown)
VH: EVQLVESGGGLVQPGGSLRLSCAASGFTFSSYSMNWVRQAPGKGLEWVSYISSSSSTIYYADSVKGRFTISRDNAKNSLYLQMNSLRDEDTAVYYCARDYYGSSGYYYPHAFDIWGQGTMVTVSS
VL: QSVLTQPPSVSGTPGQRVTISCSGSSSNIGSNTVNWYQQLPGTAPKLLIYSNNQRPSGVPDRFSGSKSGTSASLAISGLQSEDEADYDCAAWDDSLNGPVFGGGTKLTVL
notes: AlivaMab chimeric IgG, human lambda LC
B5: CCL-321A (antibody, V domains shown)
VH: EVQLVESGGGLVQPGGSLRLSCAASGFTFSSYSMNWVRQAPGKGLEWVSYISSSSSTIYYSDSVRGRFTISRDNAKNSLYLQMDSLRDEDTAVYYCARDSTMIVVVKVPDAFDIWGQGTMVTVSS
VL: not shown
notes: as for B4
B6: CCL-337A (antibody, V domains shown)
VH: QVQLQESGPGLVKPSETLSLTCTVSGGSINSYYWSWIRQPAGKGLEWIGRIYTSGNTNYNPSLKSRVTMSVDTSKNLFSLKLSSVTAADTAVYYCARERLTGYFDYWAQGTLVTVSS
VL: not shown
notes: as for B4
B7: CCL-211A (antibody, V domains shown)
VH: QVQLQESGPGLVKPSETLSLTCTVSGGSISSYYWSWIRQPAGKGLEWIGRIYISGTTNYNPSLMSRVTMSVDTSKNQFSLKLTSVTAADTAVYYCARERLVRAFDIWGQGTMVTVSS
VL: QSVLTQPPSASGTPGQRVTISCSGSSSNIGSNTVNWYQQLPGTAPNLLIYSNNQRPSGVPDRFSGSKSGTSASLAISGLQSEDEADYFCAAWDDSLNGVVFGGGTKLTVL
notes: as for B4
B8: CCL-247A (antibody, V domains shown)
VH: B6 VH with G26D, N30S, N56S, L77Q, S83T, L100I, G102S, Y103F, Y106P, A108G
VL: not shown
notes: as for B4
B9: CCL-346A (antibody, V domains shown)
VH: B6 VH with N30S, I51F, N56S, N58S, Y59C, L77Q, R99G, L100I, T101L, A108G
VL: not shown
notes: as for B4
B10: CCL-204A (antibody, V domains shown)
VH: B6 VH with V24I, G26S, N30S, N56S, N60H, L77H, S83T, Y103F, A108G
VL: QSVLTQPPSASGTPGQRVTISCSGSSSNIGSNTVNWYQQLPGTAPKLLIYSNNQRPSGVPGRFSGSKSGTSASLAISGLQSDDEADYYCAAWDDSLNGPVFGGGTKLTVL
notes: as for B4
B11: CCL-205A (antibody, V domains shown)
VH: QVQLQESGPGLVKPSETLSLTCTVSGGSISSYYWSWIRQPAGKGLEWIGRIYISGSIYNNPSLKSRVTMSVDTSKNQFSLKLSSVTAADTAVYYCARDRVGMTFDIWGQGTMVTVSS
VL: not shown
notes: as for B4
B12: CCL-216A (antibody, V domains shown)
VH: QVQLQESGPGLVKPSETLSLTCTVSGDSISNYYWSWIRQPAGKGLEWIGRIYTSGSTNNNPSLKSRVTMSVDTSKNQFSLKLSSVTAADTAVYYCARERINWFDPWGQGTLVTVSS
VL: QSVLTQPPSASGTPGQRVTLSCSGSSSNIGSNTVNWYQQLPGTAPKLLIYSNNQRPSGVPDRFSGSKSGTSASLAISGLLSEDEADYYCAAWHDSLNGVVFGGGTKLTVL
notes: as for B4
B13: CCL-328A (antibody, V domains shown)
VH: B12 VH with D27G, N31S, N59Y, V71I, E98S, I100L, N101G, W102I, P105Y
VL: not shown
notes: as for B4
B14: CCL-325A (antibody, V domains shown)
VH: QVQLQESGPGLVKPSETLSLTCTVSGGSISSYYWSWIRQSAGKGLEWIGHIYTSGSTNYNPSLKSRVTMSVDTSKNQFSLKLSSVTAADTAVYYCARERTVVTYFDYWGQGTLVTVSS
VL: not shown
notes: as for B4
B15: CCL-213A (antibody, V domains shown)
VH: QVQLQESGPGLVKPSETLSLTCTVSGGSISSYYWSWIRQPAGKGLEWIGRIYTSGSTKNPSLKSRVTMSVDTSKNQFSLKLSSVTAADTAVYYCARLTVVGALDYWGQGTLVTVSS
VL: not shown
notes: as for B4
B16: CCL-309A (antibody, V domains shown)
VH: EVQLVESGGGLVQPGGSLRLSCAASGFTFSTYSMNWVRQAPGKGLEWVSYISSSSAIIYYADSVKGRFTISRDNAKNSLYLQMNSLRDEDTAVYYCARDLPITMIVVVMPDAFDIWGQGTMVTVSS
VL: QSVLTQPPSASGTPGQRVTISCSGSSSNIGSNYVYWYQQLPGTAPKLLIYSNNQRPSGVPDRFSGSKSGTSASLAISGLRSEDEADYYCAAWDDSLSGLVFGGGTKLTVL
notes: as for B4
B17: CCK-465A (antibody, V domains shown)
VH: QVQLQESGPGLVKPSETLSLSCTVSGGSISSYYWSWIRQPAGKGLEWIGRIYTSGSTNYNPSLKSRVTMSVDTSKNQFSLKLSSVTAADTAVYYCARDRSFYGMDVWGQGTTVTVSS
VL: DIQMTQSPSSLSASVGDRVTITCRASQGFSNYLAWYQQKPGKVPKLLIYAASTLQSGVPSRFSGSGSGTDFTLTISSLQPEDVATYYCQKYNSAPLTFGGGTKVEIK
notes: AlivaMab chimeric IgG, human kappa LC
B18: CCK-541A (antibody, V domains shown)
VH: QVQLQESGPGLVKPSETLSLTCTVSGASISTYFWSWLRQPPGKGLEWIGYIFYSGSINYNPSLKSRVTISVDTSKNQFSLELSSVTAADTAVYYCARDRTFYGMDVWGQGTTVTVSS
VL: EIVLTQSPGTLSLPPGERATLSCRASQNVSSTYLAWYHQKPGQAPRLLIYGASSRATGIPDRFSGSGSGTDFTLTISRLEPEDFAVYYCQQYGSSPRTFGQGTKVEIK
notes: as for B17

Each binder was assayed against T1, native CD115 on OCI-AML5 cells (UniProt P07333 20-972, limits assumed) (assay: cell-based or functional assay).

| Binder | IC50, inhibition of CSF-1 induced P-Tyr on CD115 [nM] |
| --- | --- |
| B1 | 0.068 |
| B2 | 0.06 |
| B3 | 0.059 |

What follows are binders tested against T2, human CD115 extracellular domain (Sino Biological 10161-H08H) (human, UniProt P07333 20-517) (assay: ELISA, supernatant on huCD115).
T2 construct: extracellular domain; bought recombinant protein; also called huCD115; hu-CD115

| Binder | binding result |
| --- | --- |
| B4 | binds |
| B5 | binds |
| B6 | binds |
| B7 | binds |
| B8 | binds |
| B9 | binds |
| B10 | binds |
| B11 | binds |
| B12 | binds |
| B13 | binds |
| B14 | binds |
| B15 | binds |
| B16 | binds |

What follows are binders tested against T1, native CD115 on OCI-AML5 cells (assay: FACS, supernatant on OCI-AML5 cells).

| Binder | binding result |
| --- | --- |
| B4 | binds |
| B5 | binds |
| B6 | binds |
| B7 | binds |
| B8 | binds |
| B9 | binds |
| B10 | binds |
| B11 | binds |
| B12 | binds |
| B13 | binds |
| B14 | binds |
| B15 | binds |
| B16 | binds |

Each binder was assayed against T2, human CD115 extracellular domain (Sino …) (assay: competition ELISA, competitor TMR 20A;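 also: epitope binning by ELISA, anti-huCD115 hybridoma supernatant antibodies tested for binding to huCD115 with the competitor antibody present, loss of binding placing them in the competitor's bin; low signal means same epitope bin as the mouse competitor antibody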).

| Binder | signal vs NO COMP=100 [%] |
| --- | --- |
| B17 | 78 |
| B18 | 34 |

The binders below were run against T2, human CD115 extracellular domain (Sino …) (assay: competition ELISA, competitor TMR 24A;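 also: clonal anti-huCD115 hybridoma supernatant antibodies bound with a competitor mouse antibody present, and failure to bind puts a clone in that competitor's epitope bin; low signal means same epitope bin as the mouse competitor antibody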).

| Binder | signal vs NO COMP=100 [%] |
| --- | --- |
| B17 | 81 |
| B18 | 109 |

Each binder was assayed against T2, human CD115 extracellular domain (Sino …) (assay: competition ELISA, competitor TMR 35A;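 also: clonal hybridoma supernatant antibodies added to wells after the competitor mouse antibody, lost binding signal puts an antibody in that competitor's epitope bin; low signal means same epitope bin as the mouse competitor antibody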).

| Binder | signal vs NO COMP=100 [%] |
| --- | --- |
| B17 | 88 |
| B18 | 111 |

The binders below were run against T2, human CD115 extracellular domain (Sino …) (assay: competition ELISA, competitor TMR 44B;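 also: binding of antibodies from single-clone hybridoma supernatants to huCD115 measured with the competitor antibody present, a drop in signal meaning both share an epitope bin; low signal means same epitope bin as the mouse competitor antibody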).

| Binder | signal vs NO COMP=100 [%] |
| --- | --- |
| B17 | 8 |
| B18 | 15 |

These binders were tested against T2, human CD115 extracellular domain (Sino …) (assay: competition ELISA, competitor TMR 95A).

| Binder | signal vs NO COMP=100 [%] |
| --- | --- |
| B17 | 41 |
| B18 | 42 |

Each binder was assayed against T2, human CD115 extracellular domain (Sino …) (assay: competition ELISA, competitor TMR 100A).

| Binder | signal vs NO COMP=100 [%] |
| --- | --- |
| B17 | 92 |
| B18 | 93 |

These binders were tested against T2, human CD115 extracellular domain (Sino …) (assay: SPR ProteOn, mAb amine coupled, Hu CD115 analyte).

| Binder | Kd [nM] | koff [s⁻¹] | kon [M⁻¹ s⁻¹] |
| --- | --- | --- | --- |
| B1 | 1.2 | 0.017 | 1.2e+07 |
| B2 | 1.3 | 0.015 | 1.1e+07 |
| B3 | 1.3 | 0.014 | 1.3e+07 |

Each binder was assayed against T2, human CD115 extracellular domain (Sino …) (assay: ELISA, blocking of biotin-CSF-1 binding to coated hu-CD115).

| Binder | IC50 [nM] |
| --- | --- |
| B1 | 0.146 |
| B2 | 0.133 |
| B3 | 0.253 |

Each binder was assayed against T2, human CD115 extracellular domain (Sino …) (assay: SPR ProteOn, supernatant mAb captured on anti-mouse IgG, Hu CD115 analyte).

| Binder | Kd [nM] | koff [s⁻¹] | kon [M⁻¹ s⁻¹] |
| --- | --- | --- | --- |
| B17 | 1.41 | 0.000749 | 531000 |
| B18 | 1.4 | 0.000374 | 267000 |
